Legend:
[1] = Determination of LD50 of Fetuin in Rats; type: in vivo, Sprague-Dawley albino rats
Procedure: The Sprague-Dawley albino rats weighed 170-210 g and were divided into 4 groups, each group including 5 males and 5 females. The control group received 1 ml of saline intraperitoneally for 5 days. The other three groups were given 8.35 mg, 25 mg and 250 mg per kg body wt. of Fetuin 0.1 g/ml. All volumes were made up to 1 ml with sterile pyrogene free saline. The observation period was a least 14 days. If a visible toxic reaction occurs the observation period may be increased until visible signs of toxicity disappear. If any deaths occur during this period, the animal will be immediately autopsied to determine cause of death. During the observation period a careful clinical examination is made each day. These observations include skin and fur, eyes and mucous membranes, respiratory system, circulatory system, autonomic and central nervous system, somatomator activity and behavior patterns. Particular attention will be directed to observation of tremors, convulsions, salivation, diarrhea, lethargy, sleep or coma. Individual weights of the animals are determined shortly before the test substance is administered, and weekly thereafter. Any weight changes are recorded. At the end of the test, the surviving animals are weighed and sacrificed. Prior to sacrifice, blood is drawn from each animal to determine the serum levels of fetuin. After sacrifice, a gross necropsy is done on all animals. Any gross pathological changes are recorded and pertinent tissues preserved in 10% formalin for subsequent histopathology. The observations recorded are tabulated to see if there is any correlation between mortality and/or symptoms and the dose. The LD50 for each sex is determined at 14 days, using the method of Litchfield and Wilcoxon. A dose mortality curve and slope is determined if data justify it. A table of body weight gains or loses is constructed. Necropsy finding is reported.

MCF-7 cells = experiment: Fetuin-induced apoptosis, Hoechst staining confirmed by MTS assay; type: cell-based, Human
Procedure: (§1) The purified fetuin was tested on various cancer cell lines. […] The DNA condensation and breakage of nuclei which are the characteristics for apoptosis were observed by staining the cell with Hoechst dye at 0.1 ug/ml.
(§2) Various concentrations of Zn-charged fetuin prepared as described were incubated with cell lines for 6 hr. Percent of cell under apoptosis was determined by Hoechst staining and confirmed by MTS assay. The concentration of Zn-charged fetuin for the induction of 50% of cells under apoptosis (LD50) was determined. Each data represents the average of three assays.

[2] = test system: WI 38 (normal lung fibroblast); experiment: as above; type: cell-based, Human
Procedure: as §1, §2

[3] = test system: CCD 39 Lu (normal lung fibroblast); experiment: as above; type: cell-based, Human
Procedure: as §1, §2

HL-60 cells = experiment: as above; type: cell-based, Human
Procedure: as §1, §2

Calu-1 cells = experiment: as above; type: cell-based, Human
Procedure: as §1, §2

PC-3 cells = experiment: as above; type: cell-based, Human
Procedure: as §1, §2

Hep G2 cells = experiment: as above; type: cell-based, Human
Procedure: as §1, §2

[4] = test system: CCD 18 Co (normal colon fibroblast); experiment: as above; type: cell-based, Human
Procedure: as §1, §2

Colo 205 cells = experiment: as above; type: cell-based, Human
Procedure: as §1, §2

[5] = test system: transforming growth factor-beta (TGF); experiment: Binding of transforming growth factor-beta
normal cell lines = experiment: Apoptosis in normal cell lines; type: cell-based; settings: in 2-3 days
[6] = rats, 5 female, 8.35 mg/kg Fetuin
[7] = rats, 5 female, 8.35 mg/kg Fetuin ip
[8] = rats, 5 female, 25 mg/kg Fetuin
[9] = rats, 5 female, 25 mg/kg Fetuin ip
[10] = rats, 5 female, 250 mg/kg Fetuin
[11] = rats, 5 female, 250 mg/kg Fetuin ip
[12] = rats, 5 male, 8.35 mg/kg Fetuin
[13] = rats, 5 male, 8.35 mg/kg Fetuin ip
[14] = rats, 5 male, 25 mg/kg Fetuin ip
[15] = rats, 5 male, 250 mg/kg Fetuin ip
[16] = Zn-charged fetuin, 6 hr, average of three assays
[17] = purified fetuin, Hoechst dye 0.1 ug/ml

With “Fetuin: Fetal bovine fetuin purified from fetal bovine serum by modified Spiro method; 60 Kd glycoprotein, homologue of alpha 2-HS glycoprotein” the necropsy ([1]; all of the rats, 8.35, 25 and 250 mg per kg) was “appeared to be normal”, the “Spleen Wt. (gm)” value [1, 6] was 0.513 gm and the “Thymus Wt. (gm)” value [1, 6] was 0.481 gm. For the same substance, the “Final Wt. (gm)” value [1, 7] was 203.5 gm, the “Initial Wt. (gm)” value [1, 7] was 170.2 gm and the “Wt. Gain Total (gm)” value [1, 7] was 33.3 gm. For the same substance, the “Spleen Wt. (gm)” value [1, 8] was 0.714 gm, the “Thymus Wt. (gm)” value [1, 8] was 0.485 gm and the “Final Wt. (gm)” value [1, 9] was 218.3 gm. The “Initial Wt. (gm)” value [1, 9] was 190.3 gm, the “Wt. Gain Total (gm)” value [1, 9] was 28.0 gm and the “Spleen Wt. (gm)” value [1, 10] was 0.578 gm. For the same substance, the “Thymus Wt. (gm)” value [1, 10] was 0.619 gm, the “Final Wt. (gm)” value [1, 11] was 201.7 gm and the “Initial Wt. (gm)” value [1, 11] was 164.2 gm. For the same substance, the “Wt. Gain Total (gm)” value [1, 11] was 37.5 gm, the “Spleen Wt. (gm)” value [1, 12] was 0.745 gm and the “Thymus Wt. (gm)” value [1, 12] was 0.599 gm. For the same substance, the “Final Wt. (gm)” value [1, 13] was 283.7 gm, the “Initial Wt. (gm)” value [1, 13] was 233.5 gm and the “Wt. Gain Total (gm)” value [1, 13] was 50.2 gm. The “Spleen Wt. (gm)” value ([1]; rats, 5 male, 25 mg/kg Fetuin) was 0.796 gm, the “Thymus Wt. (gm)” value ([1]; rats, 5 male, 25 mg/kg Fetuin) was 0.525 gm and the “Final Wt. (gm)” value [1, 14] was 227.5 gm. The “Initial Wt. (gm)” value [1, 14] was 174.5 gm, the “Wt. Gain Total (gm)” value [1, 14] was 53.0 gm and the “Spleen Wt. (gm)” value ([1]; rats, 5 male, 250 mg/kg Fetuin) was 0.777 gm. The “Thymus Wt. (gm)” value ([1]; rats, 5 male, 250 mg/kg Fetuin) was 0.595 gm, the “Final Wt. (gm)” value [1, 15] was 253.3 gm and the “Initial Wt. (gm)” value [1, 15] was 186.5 gm. For the same substance, the “Wt. Gain Total (gm)” value [1, 15] was 66.8 gm, the mortality ([1]; rats, 8.35, 25 and 250 mg per kg ip, observation at least 14 days) was “no mortality” and the “LD50 of Fetuin-induced Apoptosis” value (MCF-7 cells; [16]) was 8 µM. For the same substance, the induction of apoptosis (MCF-7 cells; [17]) was “strongly induced apoptosis”, the “LD50 of Fetuin-induced Apoptosis” value ([2]; WI 38, Zn-charged fetuin, 6 hr, average of three assays) was over 100 µM and the induction of apoptosis ([2]; WI-38, purified fetuin, Hoechst dye 0.1 ug/ml) was “did not induce apoptosis”. The “LD50 of Fetuin-induced Apoptosis” value ([3]; CCD 39 Lu, Zn-charged fetuin, 6 hr, average of three assays) was over 100 µM, the induction of apoptosis ([3]; CCD39Lu, purified fetuin, Hoechst dye 0.1 ug/ml) was “did not induce apoptosis” and the “LD50 of Fetuin-induced Apoptosis” value (HL-60 cells; HL-60, Zn-charged fetuin, 6 hr, average of three assays) was 5 µM. The induction of apoptosis (HL-60 cells; HL-60, purified fetuin, Hoechst dye 0.1 ug/ml) was “strongly induced apoptosis”, the “apoptosis of HL-60 cells” value (HL-60 cells; at 1 uM) was “induce apoptosis” and the “LD50 of Fetuin-induced Apoptosis” value (Calu-1 cells; [16]) was 4 µM. For the same substance, the induction of apoptosis (Calu-1 cells; [17]) was “strongly induced apoptosis”, the “LD50 of Fetuin-induced Apoptosis” value (PC-3 cells; [16]) was 1 µM and the induction of apoptosis (PC-3 cells; [17]) was “strongly induced apoptosis”. For the same substance, the “LD50 of Fetuin-induced Apoptosis” value (Hep G2 cells; Hep G2, Zn-charged fetuin, 6 hr, average of three assays) was 20 µM, the induction of apoptosis (Hep G2 cells; HepG2, purified fetuin, Hoechst dye 0.1 ug/ml) was “strongly induced apoptosis” and the “LD50 of Fetuin-induced Apoptosis” value ([4]; CCD 18 Co, Zn-charged fetuin, 6 hr, average of three assays) was over 100 µM. The induction of apoptosis ([4]; CCD18Co, purified fetuin, Hoechst dye 0.1 ug/ml) was “did not induce apoptosis”, the “LD50 of Fetuin-induced Apoptosis” value (Colo 205 cells; [16]) was 5 µM and the induction of apoptosis (Colo 205 cells; [17]) was “strongly induced apoptosis”. The “binding of transforming growth factor-beta (TGF)” value [5] was “high affinity” and the “apoptosis in normal cell lines” value (normal cell lines) was “not the normal cell lines”.

Reference: US20030044400A1, “Composition and method for treating cells” (priority 2001, published 2003)
